Measurements taken from patent US20230242674A1 (LANKENAU INSTITUTE FOR MEDICAL RESEARCH, published 2023).

T1: recombinant human IDO2 protein (human, UniProt Q6ZQW0 1-407, limits assumed)
T1 construct: also called human Indoleamine 2,3-Dioxygenase 2; human IDO2 recombinant protein
T1 sequence: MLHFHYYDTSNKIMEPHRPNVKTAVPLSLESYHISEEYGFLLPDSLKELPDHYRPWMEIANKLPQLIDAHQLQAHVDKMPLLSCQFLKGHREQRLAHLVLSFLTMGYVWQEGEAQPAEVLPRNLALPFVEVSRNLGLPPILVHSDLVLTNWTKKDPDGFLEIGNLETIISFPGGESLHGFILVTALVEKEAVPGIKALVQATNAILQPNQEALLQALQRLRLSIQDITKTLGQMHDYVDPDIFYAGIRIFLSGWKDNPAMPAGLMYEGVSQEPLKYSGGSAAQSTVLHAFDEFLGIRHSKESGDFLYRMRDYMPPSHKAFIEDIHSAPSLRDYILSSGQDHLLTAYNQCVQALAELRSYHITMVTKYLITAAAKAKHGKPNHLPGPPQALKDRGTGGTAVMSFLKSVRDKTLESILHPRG

B1: anti-human IDO2 monoclonal antibody 13-3 (antibody, V domains shown)
VH: QVRLQQPGAELVKPGASVKLSCKASGYTFTSYWMHWVKQRPGQGLEWIGEINPSTGRTNYNERFRSKATLTVDKFSTTAYMQFSSLTSEDSAVYYCVGLRFAYWGQGTLVSVSA
VL: DVVMTQTPLSLPVSFGDQVSISCRSSQSLADSYGNTYLSWYLHKPGQSPQLLIYGISNRFSGVPDRFSGSGSGTDFTLKISTIKPEDLGMYYCLQGTHQPLTFGAGTKLELKR
notes: Mouse hybridoma antibody raised against human IDO2 amino acids 331-351; It was detected with an anti-mouse IgG Fc-specific secondary antibody; also called mAb 13-3
B2: anti-human IDO2 monoclonal antibody 20-10 (antibody, V domains shown)
VH: B1 VH
VL: B1 VL
notes: Mouse hybridoma antibody; It was detected with an anti-mouse IgG Fc-specific secondary antibody; also called mAb 20-10
B3: anti-human IDO2 monoclonal antibody 18-1 (antibody, V domains shown)
VH: B1 VH
VL: B1 VL
notes: Mouse hybridoma antibody; It was detected with an anti-mouse IgG Fc-specific secondary antibody; also called mAb 18-1

What was measured:
[1] = target: T2, human IDO1 with V5 tag, expressed in T-REx cells (human, UniProt P14902 1-403); assay: Western blot of T-REx cell extracts; HRP secondary antibody, chemiluminescence
T2 construct: Cell extract fractionated for the Western blot; not shown: V5 tag
T2 sequence (P14902 whole entry): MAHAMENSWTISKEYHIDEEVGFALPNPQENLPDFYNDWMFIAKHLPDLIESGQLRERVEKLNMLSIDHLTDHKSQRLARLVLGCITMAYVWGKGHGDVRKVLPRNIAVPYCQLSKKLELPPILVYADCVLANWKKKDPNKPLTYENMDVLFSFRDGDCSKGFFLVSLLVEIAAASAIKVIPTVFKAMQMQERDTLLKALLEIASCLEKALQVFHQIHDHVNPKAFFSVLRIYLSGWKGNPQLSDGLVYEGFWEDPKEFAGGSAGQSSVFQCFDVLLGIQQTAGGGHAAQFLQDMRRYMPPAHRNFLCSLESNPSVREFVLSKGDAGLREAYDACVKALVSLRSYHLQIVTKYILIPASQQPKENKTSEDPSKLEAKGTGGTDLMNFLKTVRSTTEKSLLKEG
Experimental: (§1) FIG. 3 is a Western blot analysis using IDO-expressing Tᵣₑₓ cells. All IDO expressed proteins mouse and human IDO 1 and IDO2 contain a V5 tag. […] Cell extracts for IDO expressing cells or the parental T-REX line were prepared and fractionated as previously described (PMID: 17671174 & 26717206). Detection of indicated proteins was done using standard blotting methods, HRP conjugated secondary antibodies and chemiluminescence detection reagents.
as §1, with “A” for “FIG. 3 is a”, “analysis was conducted” for “analysis”, “containing” for “contain”, “(See US2019/0062452, incorporated by reference herein).” for “(PMID: 17671174 & 26717206).”

[2] = target: T3, mouse IDO1 with V5 tag, expressed in T-REx cells (mouse, UniProt P28776 1-407); assay: as above
T3 construct: Cell extract fractionated for the Western blot; also called murine IDO1; not shown: V5 tag
T3 sequence (P28776 whole entry): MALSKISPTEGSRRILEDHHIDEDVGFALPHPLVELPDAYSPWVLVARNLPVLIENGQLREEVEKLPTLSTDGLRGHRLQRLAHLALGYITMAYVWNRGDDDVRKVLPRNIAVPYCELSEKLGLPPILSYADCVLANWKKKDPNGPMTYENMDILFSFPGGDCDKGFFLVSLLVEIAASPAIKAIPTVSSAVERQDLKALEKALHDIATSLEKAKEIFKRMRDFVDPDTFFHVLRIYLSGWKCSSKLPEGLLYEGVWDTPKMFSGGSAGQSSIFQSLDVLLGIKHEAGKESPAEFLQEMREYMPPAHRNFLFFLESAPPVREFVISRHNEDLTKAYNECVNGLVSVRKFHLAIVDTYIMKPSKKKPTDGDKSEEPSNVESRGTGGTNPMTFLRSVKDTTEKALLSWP
Experimental: as §1
as §1, with “A” for “FIG. 3 is a”, “analysis was conducted” for “analysis”, “containing” for “contain”, “(See US2019/0062452, incorporated by reference herein).” for “(PMID: 17671174 & 26717206).”

[3] = target: T1, recombinant human IDO2 protein; assay: ELISA; plate coated with 100 ng recombinant human IDO2; detection with anti-mouse IgG Fc-specific HRP and ABTS
Experimental: (§2) FIG. 1 is a graph showing the binding curves of three anti-human IDO2 monoclonal antibodies 13-3, 18-1 and 20-10 described herein and their binding concentrations vs. human IDO2 recombinant protein. Three cloned hybridomas were generated against the human IDO2 amino acids #331-351 (NP 919270; SEQ ID NO: 23). ELISA analysis compares the binding of the anti-human IDO2 antibodies (mAbs) to recombinant human IDO2 protein (100 ng of recombinant human IDO2 protein was used to coat the ELISA plate). Increasing concentrations of mAb were incubated with the coated protein and anti-IDO2 Ig that bound the fixed protein was detected with an anti-mouse IgG Fc-specific HRP secondary antibody and ABTS substrate. Data is presented as Mean±SD.
as §2, with “Three” for “FIG. 1 is a graph showing the binding curves of three anti-human IDO2 monoclonal antibodies 13-3, 18-1 and 20-10 described herein and their binding concentrations vs. human IDO2 recombinant protein. Three”, “substrate.” for “substrate. Data is presented as Mean±SD.”

[4] = target: B3; assay: competitive ELISA; soluble peptide titrated against 1 µg/ml mAb in solution; competitor: coated recombinant human IDO2 (100 ng); plate-bound mAb detected with anti-mouse IgG Fc HRP and ABTS
Experimental: FIGS. 2A and 2B show results of a competitive ELISA that was developed to test the specificity of the antibodies. 100 ng of the recombinant human IDO2 protein was used to coat the ELISA plate. A constant amount (1 μg/ml) of IDO2 antibody was incubated in solution with specified concentrations of soluble peptide. If the antibody interacted with the soluble peptide, the antibody was then unavailable to bind the coated antigen. Anti-IDO2 Ig that bound the fixed protein was detected with an anti-mouse IgG FC-specific HRP secondary antibody and ABTS substrate. Data is presented as Mean±SD. […] FIG. 2A is a graph of a competitive ELISA comparing the recognition of the three anti-human IDO2 mAbs of FIG. 1 to the human epitope, plotting absorbance vs. epitope peptide concentration. FIG. 2B is a graph of a competitive ELISA comparing the recognition of the three anti-human IDO2 mAbs of FIG. 1 to the mouse epitope, plotting absorbance vs. epitope peptide concentration.
A competitive ELISA was developed to test the specificity of the antibodies. 100 ng of the recombinant human IDO2 protein was used to coat the ELISA plate. A constant amount (1 μg/ml) of IDO2 antibody was incubated in solution with specified concentrations of soluble peptide. […] Anti-IDO2 Ig that bound the fixed protein was detected with an anti-mouse IgG FC-specific HRP secondary antibody and ABTS substrate.

## B1
[1]
  binding result: no binding
[2]
  binding result: no binding
[3]
  EC50 (read off the curve): ~0.01 µg/mL

## B2
[1]
  binding result: no binding
[2]
  binding result: no binding
[3]
  EC50 (read off the curve): ~0.02 µg/mL

## B3
[1]
  binding result: no binding
[2]
  binding result: no binding
[3]
  EC50 (read off the curve): ~0.02 µg/mL

## RDYILSSGQDHLLTAYNQCVQ (also called hIDO2 Peptide) [Human Epitope]
[4]
  IC50 (read off the curve): ~7 µM

## RDYILASGPGDCLMAYNQCVE [murine IDO2 epitope peptide (amino acids 331-351 of murine IDO2)]
[4]
  IC50 (read off the curve): ~9 µM
